According to PMC4072508, “Genome-Wide Prediction and Validation of Peptides That Bind Human Prosurvival Bcl-2 Proteins” (PLoS Computational Biology, 2014):

T1: Bcl-2, P10415
T1 chain: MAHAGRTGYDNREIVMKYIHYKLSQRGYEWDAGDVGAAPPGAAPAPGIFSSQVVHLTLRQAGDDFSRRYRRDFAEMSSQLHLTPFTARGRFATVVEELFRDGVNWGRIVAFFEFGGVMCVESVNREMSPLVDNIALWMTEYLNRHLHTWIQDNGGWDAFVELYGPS

T2: Mcl-1, Q07820
T2 chain: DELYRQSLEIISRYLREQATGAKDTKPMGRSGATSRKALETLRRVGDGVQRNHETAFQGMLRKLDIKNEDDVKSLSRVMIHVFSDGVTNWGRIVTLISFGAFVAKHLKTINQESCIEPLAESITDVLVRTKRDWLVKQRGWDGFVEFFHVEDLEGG

T3: Bfl-1, Q16548
T3 chain: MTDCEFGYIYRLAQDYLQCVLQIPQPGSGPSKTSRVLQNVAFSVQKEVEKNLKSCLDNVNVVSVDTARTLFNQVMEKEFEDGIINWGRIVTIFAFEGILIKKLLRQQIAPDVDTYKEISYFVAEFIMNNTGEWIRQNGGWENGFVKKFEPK

T4: Bcl-w, Q92843
T4 chain: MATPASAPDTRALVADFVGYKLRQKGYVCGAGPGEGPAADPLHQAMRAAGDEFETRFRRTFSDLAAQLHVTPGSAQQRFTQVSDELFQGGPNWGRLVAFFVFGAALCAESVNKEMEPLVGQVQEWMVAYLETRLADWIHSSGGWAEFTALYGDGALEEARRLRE

B1: TERT (peptide)
chain: LRGSGAWGLLLRRVGDDVLVHLLARC
B2: VCAM1 (peptide)
chain: KIETTPESRYLAQIGDSVSLTCSTTG
B3: CASP3 (peptide)
chain: SWFIQSLCAMLKQYADKLEFMHILTR
B4: c6orf222 (peptide)
chain: DAIIQMIVELLKRVGDQWEEEQSLAS
B5: SNTA1 (peptide)
chain: SATHDEAVQVLKKTGKEVVLEVKYMK
B6: ACN9 (peptide)
chain: LQLHRVLPPDLKSLGDQYVKDEFRRH
B7: NAE1 (peptide)
chain: AAVGNHVAKLLQSIGQAPESISEKEL
B8: NOL8 (peptide)
chain: KYDPSKYCHNLKKIGEDFSNTIPISS
B9: NCKAP1 (peptide)
chain: KEFLALASSSLLKIGQETDKTTTRNR
B10: RNF8 (peptide)
chain: GDRAGGRSWCLRRVGMSAGWLLLEDG
B11: PYCARD (peptide)
chain: DLTDKLVSFYLETYGAELTANVLRDM
B12: NOL4 (peptide)
chain: VAGYRESAAFLLRSADELENLILQQN
B13: MTBP (peptide)
chain: ADLYEEAAENLHQLSDKLPAPGRAMV
B14: DCAF8L1 (peptide)
chain: TIHFNQRGTRLASSGDDLRVIVWDWV
B15: ACAP3 (peptide)
chain: LGRTGQVCLFLKRGADQHALDQEQRD
B16: MAGEB2 (peptide)
chain: IKKSVTKGEMLKIVGKRFREHFPEIL
B17: GAS2 (peptide)
chain: FMEKLDNGALLCQLAETMQEKFKESM
B18: CASP5 (peptide)
chain: DNHKKKTVKMLEYLGKDVLHGVFNYL
B19: SACS (peptide)
chain: SVGGRGISSKLDSLADELKFVPIIGI
B20: TLR5 (peptide)
chain: PEDLQDVGWFLHKLSQQILKKEKEKK
B21: PION (peptide)
chain: DISLSNSGFKLVNFGCDYHQYRDKFS

Target: T1, Bcl-2, P10415
Assay: fluorescence polarisation, direct titration of receptor into 10 nM labelled peptide

Binder | Kd
B1 | 49 nM
B2 | > 3040 nM
B3 | 264 nM
B4 | 0.3 nM

Target: T2, Mcl-1, Q07820
Assay: as above

Binder | Kd
B1 | 69 nM
B4 | 23 nM

Target: T3, Bfl-1, Q16548
Assay: as above

Binder | Kd
B1 | 99 nM
B2 | > 3370 nM
B3 | 43 nM
B4 | 1 nM

Target: T4, Bcl-w, Q92843
Assay: as above

Binder | Kd
B1 | 992 nM
B2 | > 4350 nM
B3 | 64 nM
B4 | 13 nM

Target: T2, Mcl-1, Q07820
Assay: peptide SPOT array, c-Myc-tagged receptor at 1 uM or 100 nM, anti-c-Myc-Cy3

Binder | SPOT signal as a fraction of Bim BH3's signal on the same receptor and array
B5 | 0.06
B6 | 0.1
B7 | 0.02
B8 | 0.03
B9 | 0.12
B10 | 0.06
B1 | 0.14
B11 | 0.07
B12 | 0.04
B13 | 0.02
B14 | 0.04
B15 | 0.08
B16 | 0.27
B17 | 0.02
B18 | 0.11
B19 | 0.02
B20 | 0.3
B21 | 0.14

Target: T3, Bfl-1, Q16548
Assay: as above

Binder | SPOT signal as a fraction of Bim BH3's signal on the same receptor and array
B5 | 0.05
B6 | 0.15
B7 | 0.02
B8 | 0.05
B9 | 0.23
B10 | 0.13
B1 | 0.19
B11 | 0.02
B12 | 0.02
B13 | 0.02
B14 | 0.04
B15 | 0.16
B16 | 0.45
B2 | 0.03
B17 | 0.02
B18 | 0.19
B19 | 0.02
B3 | 0.25
B20 | 0.25
B21 | 0.38

target: Bcl-xL, Q07817; assay: as above
Sequence (Q07817 1-209): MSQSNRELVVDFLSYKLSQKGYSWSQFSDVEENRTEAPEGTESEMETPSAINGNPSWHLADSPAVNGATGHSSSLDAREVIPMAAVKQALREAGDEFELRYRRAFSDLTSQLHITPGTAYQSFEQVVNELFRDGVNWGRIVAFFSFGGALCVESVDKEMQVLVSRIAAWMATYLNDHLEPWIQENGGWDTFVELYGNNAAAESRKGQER

Binder | SPOT signal as a fraction of Bim BH3's signal on the same receptor and array
B5 | 0.15
B6 | 0.28
B7 | 0.03
B8 | 0.57
B9 | 0.26
B10 | 0.12
B1 | 0.32
B11 | 0.04
B12 | 0.04
B13 | 0.02
B14 | 0.06
B15 | 0.41
B16 | 0.52
B17 | 0.03
B18 | 0.28
B19 | 0.03
B20 | 0.1
B21 | 0.39

target: Bcl-2, P10415; assay: as above

Binder | SPOT signal as a fraction of Bim BH3's signal on the same receptor and array
B5 | 0.02
B6 | 0.05
B7 | 0.01
B8 | 0.02
B9 | 0.03
B10 | 0.04
B1 | 0.03
B11 | 0.01
B12 | 0.01
B13 | 0.01
B14 | 0.02
B15 | 0.06
B16 | 0.15
B17 | 0.01
B18 | 0.05
B19 | 0.01
B20 | 0.07
B21 | 0.09

Target: T4, Bcl-w, Q92843
Assay: as above

Binder | SPOT signal as a fraction of Bim BH3's signal on the same receptor and array
B5 | 0.08
B6 | 0.14
B7 | 0.02
B8 | 0.05
B9 | 0.26
B10 | 0.07
B1 | 0.12
B11 | 0.03
B12 | 0.03
B13 | 0.02
B14 | 0.03
B15 | 0.11
B16 | 0.59
B17 | 0.02
B18 | 0.21
B19 | 0.02
B20 | 0.3
B21 | 0.2
